Results from PMC8421226, “Structural basis for glucocorticoid receptor recognition of both unmodified and methylated binding sites, precursors of a modern recognition element” (Nucleic Acids Research, 2021).

Tests used:
[1] = tested on: AncCR DBD (reconstructed ancestral); assay: fluorescence polarization; conditions: FP: 20 mM Tris-HCl pH 7.4, 150 mM NaCl, 5% glycerol, 10 nM FAM-DNA, 1 nM-50 uM DBD, temperature not stated
[2] = tested on: AncGR1 DBD (reconstructed ancestral); assay: fluorescence polarization; conditions: FP: 20 mM Tris-HCl pH 7.4, 150 mM NaCl, 5% glycerol, 10 nM FAM-DNA, 1 nM-50 uM DBD, temperature not stated
[3] = tested on: AncSR2 DBD (reconstructed ancestral); assay: fluorescence polarization; conditions: FP: 20 mM Tris-HCl pH 7.4, 150 mM NaCl, 5% glycerol, 10 nM FAM-DNA, 1 nM-50 uM DBD, temperature not stated
[4] = molecular target: T1, GR DBD (human, UniProt P04150 418-493); assay: X-ray crystallography (2.0 A); DBD dimer; FP: 20 mM Tris-HCl pH 7.4, 150 mM NaCl, 5% glycerol; 10 nM FAM-DNA, 1 nM-50 uM DBD; temperature not stated; conditions: protein: recombinant; tags: 6xHis (pMCSG7 vector); chain copies: 2
T1 sequence (P04150 418-493): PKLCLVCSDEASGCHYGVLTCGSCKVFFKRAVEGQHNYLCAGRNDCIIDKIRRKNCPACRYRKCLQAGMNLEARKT

[5] = molecular target: T1, GR DBD; assay: fluorescence polarization; FP: 20 mM Tris-HCl pH 7.4, 150 mM NaCl, 5% glycerol; 10 nM FAM-DNA, 1 nM-50 uM DBD; temperature not stated; conditions: protein: recombinant, tags: 6xHis (pMCSG7 vector), chain copies: 2, label: 5' FAM on strand 1
[6] = molecular target: the molecule itself; assay: crystal structure; GR DBD with 5mC-GBS or pre-GBS DNA duplex, 2:1 protein:DNA molar ratio; hanging drop vapor diffusion, 50 mM sodium cacodylate pH 6.5, 80 mM calcium chloride, 1% glycerol, 7% or 8.5% PEG 400; dimer of DBD on DNA in the asymmetric unit
[7] = molecular target: T1, GR DBD; assay: X-ray crystallography (2.5 A); DBD dimer; FP: 20 mM Tris-HCl pH 7.4, 150 mM NaCl, 5% glycerol; 10 nM FAM-DNA, 1 nM-50 uM DBD; temperature not stated; conditions: protein: recombinant; tags: 6xHis (pMCSG7 vector); chain copies: 2
[8] = 5mC at CpG, methyl at mC10 of AGAACGGAGCGTTCT (C12 of strand) seen in structure, other positions in Figure 3A

CCAGAACGGAGCGTTCTGA (double strand) [5mC-GBS]
Kd [1, 8]: 318 nM
Kd [2, 8]: 78 nM
Kd [3, 8]: 443 nM

CCAGAACGGAGCGTTCTGA / TCAGAACGCTCCGTTCTG [pre-GBS]
Kd [1]: 575 nM
Kd [2]: 139 nM
Kd [3]: 811 nM

B1: 5mC-GBS crystal DNA (dsDNA)
DNA 1: CCAGAACGGAGCGTTCTG
DNA 2: TCAGAACGCTCCGTTCTG
modifications: 5mC at CpG (mC10)
binding result [4]: binds

B2: pre-GBS (dsDNA)
DNA 1: CCAGAACGGAGCGTTCTGA
DNA 2: TCAGAACGCTCCGTTCTG
Kd ([5]; as printed the second strand lacks its 3' terminal G (5' overhang 1 nt on strand 1), possibly a misprint): 206 nM

B3: 5mC-GBS (dsDNA)
DNA 1: CCAGAACGGAGCGTTCTGA
DNA 2: TCAGAACGCTCCGTTCTGG
modifications: 5mC at CpG; methyl at mC10 of AGAACGGAGCGTTCT (C12 of strand) seen in structure, other positions in Figure 3A
Kd ([5]; blunt): 131 nM

B4: GBS (dsDNA)
DNA 1: TGAGAACAGAGTGTTCTTT
DNA 2: AAAGAACACTCTGTTCTCA
Kd ([5]; blunt): 73 nM

B5: human glucocorticoid receptor DNA-binding domain (domain or fragment)
chain: PPKLCLVCSDEASGCHYGVLTCGSCKVFFKRAVEGQHNYLCAGRNDCIIDKIRRKNCPACRYRKCLQAGMNLEAR
notes: Cloned into the pMCSG7 vector; In the crystals two DBD copies sit on one DNA duplex (5mC-GBS or pre-GBS); also called GR DBD; GR; source: E. coli BL21 (DE3) pLysS, purified (His-Trap, gel filtration)
stoichiometry N [6]: 2

B6: pre-GBS crystal DNA (dsDNA)
DNA 1: CCAGAACGGAGCGTTCTG
DNA 2: TCAGAACGCTCCGTTCTG
binding result [7]: binds
